# Results reported in paper PMC5658042 (Methods (San Diego, Calif.), 2017).
# B1: Loquacious-PD (Loqs-PD), OSF tag removed (natural protein, Drosophila melanogaster, UniProt Q9VJY9-4 1-359, looked up)
# chain: MDQENFHGSSLPQQLQNLHIQPQQASPNPVQTGFAPRRHYNNLVGLGNGNAVSGSPVKGAPLGQRHVKLKKEKISAQVAQLSQPGQLQLSDVGDPALAGGSGLQGGVGLMGVILPSDEALKFVSETDANGLAMKTPVSILQELLSRRGITPGYELVQIEGAIHEPTFRFRVSFKDKDTPFTAMGAGRSKKEAKHAAARALIDKLIGAQLPESPSSSAGPSVTGLTVAGSGGDGNANATGGGDASDKTVGNPIGWLQEMCMQRRWPPPSYETETEVGLPHERLFTIACSILNYREMGKGKSKKIAKRLAAHRMWMRLQETPIDSGKISDSICGELEGEVSIIQDIDRYEQVSKDFEFIKI
# modifications: mono-phosphorylated (intact-mass ESI/MS shows a phospho and a dephosphorylated species); putative site assigned to the motif 213-SPSSS-217
# Target: Drosophila melanogaster Dicer-2 (dmDcr-2), OSF tag removed (Drosophila melanogaster, UniProt A1ZAW0 1-1722)
# Assay: cross-linking
# Chain of Drosophila melanogaster Dicer-2 (dmDcr-2), OSF tag removed (A1ZAW0 whole entry): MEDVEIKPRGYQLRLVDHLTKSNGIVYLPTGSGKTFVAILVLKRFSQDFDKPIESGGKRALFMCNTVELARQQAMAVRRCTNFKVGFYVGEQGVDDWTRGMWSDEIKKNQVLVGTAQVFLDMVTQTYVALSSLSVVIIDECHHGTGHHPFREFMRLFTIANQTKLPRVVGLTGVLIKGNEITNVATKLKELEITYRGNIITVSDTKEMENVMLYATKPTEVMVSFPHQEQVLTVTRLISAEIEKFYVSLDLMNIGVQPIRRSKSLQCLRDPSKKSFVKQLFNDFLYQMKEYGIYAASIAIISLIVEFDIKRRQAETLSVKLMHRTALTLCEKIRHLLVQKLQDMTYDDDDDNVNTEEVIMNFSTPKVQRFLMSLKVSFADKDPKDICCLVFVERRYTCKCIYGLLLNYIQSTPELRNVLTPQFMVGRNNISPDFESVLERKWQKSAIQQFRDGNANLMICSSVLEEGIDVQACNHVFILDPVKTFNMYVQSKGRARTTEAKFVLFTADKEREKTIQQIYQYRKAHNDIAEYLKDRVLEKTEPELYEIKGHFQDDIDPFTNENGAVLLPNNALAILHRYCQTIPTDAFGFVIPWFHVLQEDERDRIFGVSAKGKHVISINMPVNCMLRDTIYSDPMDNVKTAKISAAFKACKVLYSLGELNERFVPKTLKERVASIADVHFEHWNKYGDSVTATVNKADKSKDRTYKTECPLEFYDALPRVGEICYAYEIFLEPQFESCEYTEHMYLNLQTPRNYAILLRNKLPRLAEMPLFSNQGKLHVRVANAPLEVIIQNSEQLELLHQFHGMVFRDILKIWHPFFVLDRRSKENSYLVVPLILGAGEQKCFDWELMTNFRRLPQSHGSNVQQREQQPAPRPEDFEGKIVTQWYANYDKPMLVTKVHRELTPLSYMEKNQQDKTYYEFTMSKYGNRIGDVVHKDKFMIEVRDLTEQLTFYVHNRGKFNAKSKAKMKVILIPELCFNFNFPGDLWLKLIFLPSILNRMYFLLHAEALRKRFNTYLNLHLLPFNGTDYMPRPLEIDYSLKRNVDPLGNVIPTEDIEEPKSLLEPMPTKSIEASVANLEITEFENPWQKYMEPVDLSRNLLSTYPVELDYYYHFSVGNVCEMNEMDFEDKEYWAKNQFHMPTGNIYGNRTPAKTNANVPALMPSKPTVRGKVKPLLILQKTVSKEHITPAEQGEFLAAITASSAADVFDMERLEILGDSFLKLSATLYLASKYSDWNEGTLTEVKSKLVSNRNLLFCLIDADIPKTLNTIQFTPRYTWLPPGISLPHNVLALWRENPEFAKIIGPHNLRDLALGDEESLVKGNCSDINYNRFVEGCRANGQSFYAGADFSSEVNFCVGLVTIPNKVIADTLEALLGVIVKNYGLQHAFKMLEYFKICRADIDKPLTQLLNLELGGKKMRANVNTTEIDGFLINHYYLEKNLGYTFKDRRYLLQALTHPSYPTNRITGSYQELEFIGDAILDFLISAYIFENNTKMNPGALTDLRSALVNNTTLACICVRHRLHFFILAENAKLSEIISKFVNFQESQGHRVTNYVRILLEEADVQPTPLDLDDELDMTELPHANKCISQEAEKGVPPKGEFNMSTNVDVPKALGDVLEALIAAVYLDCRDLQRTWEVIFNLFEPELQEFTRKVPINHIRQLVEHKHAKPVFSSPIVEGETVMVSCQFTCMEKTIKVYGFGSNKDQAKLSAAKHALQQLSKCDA
binder,measurement,value
B1,stoichiometry N,1
